Tests used:
[1] = target: insulin
[2] = target: the molecule itself; experiment: gel filtration (S75 26/60), self-association of monomers

Protein	increase of turbidity at 650 nm (insulin disulphide reduction assay) [1]	binding result [2]
DsbA-C4bp fusion protein (human C4bp core fused to the C-terminus of the E. coli DsbA protein) (protein) AQYEDGKQYTTLEKPVAGAPQVLEFFSFFCPHCYQFEEVLHISDNVKKKLPEGVKMTKYHVNFMGGDLGKDLTQAWAVAMALGVEDKVTVPLFEGVQKTQTIRSASDIRDVFINAGIKGEEYDAAWNSFVVKSLVAQQEKAAADVQLRGVPAMFVNGKYQLNPQGMDTSNMDVFVQQYADTVKYLSEKKETPEGCEQVLTGKRLMQCLPNPEDVKMALEVYKLSLEIEQLELQRDSARQSTLDKEL	the DsbA present in the DsbA-C4bp fusion protein is still active, and the activity is directly comparable to the activity of soluble DsbA	–
DsbA (soluble DsbA of E. coli) (protein) AQYEDGKQYTTLEKPVAGAPQVLEFFSFFCPHCYQFEEVLHISDNVKKKLPEGVKMTKYHVNFMGGDLGKDLTQAWAVAMALGVEDKVTVPLFEGVQKTQTIRSASDIRDVFINAGIKGEEYDAAWNSFVVKSLVAQQEKAAADVQLRGVPAMFVNGKYQLNPQGMDTSNMDVFVQQYADTVKYLSEKK	the activity is directly comparable to the activity of soluble DsbA	–
db-C4bp fusion protein (downstream box peptide fused N-terminal to the 57 amino acid core domain of the human C4bp alpha chain) (other, Expressed in the cytosol of E. coli C41(DE3); Predicted monomer size 7491.5 Da; Recovered as an oligomer of about 60-67 kDa by gel filtration, with disulphide bonds between the monomers; also called native db-C4bp; product of plasmid pAVD 77) MASMNHKGSETPEGCEQVLTGKRLMQCLPNPEDVKMALEVYKLSLEIEQLELQRDSARQSTLDKEL	–	binds

From patent US20070092933A1 (AVIDIS, published 2007)
